From patent publication US11795460B2, “Compositions and methods for TTR gene editing and treating ATTR amyloidosis” (Intellia Therapeutics, Inc., priority 2017, dated 2023)
Strand notation (5' to 3'): a small letter for the sugar, then the base; units joined by * are phosphorothioate-linked, units joined directly phosphodiester-linked; [ ] holds rarer units or linkages, { } end groups; capitals alone tell only the bases. m = 2'-O-methyl; r = 2'-OH (RNA)

Legend:
TTR = test: EC50 and maximum editing in primary cyno hepatocytes treated with LNP formulated U-depleted Spy Cas9 mRNA and sgRNAs (Tables 20, 22); type: cell-based, cynomolgus monkey; parameters: key: % of sequence reads with indels or substitutions over total reads; settings: Table 20, LNP with U-depleted Spy Cas9 mRNA and human specific sgRNAs, dose response
Experimental: Primary liver hepatocytes. Primary human liver hepatocytes (PHH) and primary cynomolgus liver hepatocytes (PCH) (Gibco) were cultured per the manufacturer's protocol (Invitrogen, protocol 11.28.2012). In brief, the cells were thawed and resuspended in hepatocyte thawing medium with supplements (Gibco, Cat. CM7000) followed by centrifugation at 100 g for 10 minutes for human and 80 g for 4 minutes for cyno. The supernatant was discarded and the pelleted cells resuspended in hepatocyte plating medium plus supplement pack (Invitrogen, Cat. A1217601 and CM3000). Cells were counted and plated on Bio-coat collagen I coated 96-well plates (ThermoFisher, Cat. 877272) at a density of 33,000 cells/well for human or 60,000 cells/well for cyno (or 65,000 cells/well when assaying effects on TTR protein, described further below). Plated cells were allowed to settle and adhere for 6 or 24 hours in a tissue culture incubator at 37° C. and 5% CO2 atmosphere. After incubation cells were checked for monolayer formation and media was replaced with hepatocyte culture medium with serum-free supplement pack (Invitrogen, Cat. A1217601 and CM4000).
For LNPs prepared using the cross-flow technique, the LNPs were formed by impinging jet mixing of the lipid in ethanol with two volumes of RNA solutions and one volume of water. The lipid in ethanol is mixed through a mixing cross with the two volumes of RNA solution. A fourth stream of water is mixed with the outlet stream of the cross through an inline tee. (See WO2016010840 FIG. 2.) The LNPs were held for 1 hour at room temperature, and further diluted with water (approximately 1:1 v/v). Diluted LNPs were concentrated using tangential flow filtration on a flat sheet cartridge (Sartorius, 100 kD MWCO) and then buffer exchanged by diafiltration into 50 mM Tris, 45 mM NaCl, 5% (w/v) sucrose, pH 7.5 (TSS). Alternatively, the final buffer exchange into TSS was completed with PD-10 desalting columns (GE). If required, formulations were concentrated by centrifugation with Amicon 100 kDa centrifugal filters (Millipore). The resulting mixture was then filtered using a 0.2 μm sterile filter. The final LNP was stored at 4° C. or −80° C. until further use.
To quantitatively determine the efficiency of editing at the target location in the genome, sequencing was utilized to identify the presence of insertions and deletions introduced by gene editing.
Primers were designed around the target site within the gene of interest (e.g. TTR), and the genomic area of interest was amplified.
Additional PCR was performed per the manufacturer's protocols (Illumina) to add chemistry for sequencing. The amplicons were sequenced on an Illumina MiSeq instrument. The reads were aligned to a reference genome (e.g., the human reference genome (hg38), the cynomologus reference genome (mf5), the rat reference genome (rn6), or the mouse reference genome (mm10)) after eliminating those having low quality scores. The resulting files containing the reads were mapped to the reference genome (BAM files), where reads that overlapped the target region of interest were selected and the number of wild type reads versus the number of reads which contain an insertion, substitution, or deletion was calculated.
The editing percentage (e.g., the “editing efficiency” or “percent editing” or “indel frequency”) is defined as the total number of sequence reads with insertions/deletions (“indels”) or substitutions over the total number of sequence reads, including wild type.
Lipid nanoparticle formulations of modified sgRNAs targeting human TTR and the cyno matched sgRNA sequences were tested on primary human hepatocytes and primary cyno hepatocytes in a dose response curve. Primary human and cyno hepatocytes were plated as described in Example 1. Both cell lines were incubated at 37° C., 5% CO2 for 24 hours prior to treatment with LNPs. […]

human TTR sequence = test: Liver editing in humanized TTR mice dosed with LNP formulations (Table 26); type: in vivo, mouse
[1] = 1, 0.3, or 0.1 mg/kg, Cas9 mRNA (SEQ ID NO: 1) 1:1 by weight to guide, FIG. 27A
[2] = 1, 0.3, or 0.1 mg/kg, Cas9 mRNA (SEQ ID NO: 1) 1:2 by weight to guide, FIG. 28A
[3] = 1, 0.3, 0.1, or 0.03 mg/kg, Cas9 mRNA (SEQ ID NO: 1) 1:1 by weight to guide, FIG. 26A

| Molecule | Max Editing (TTR) | Liver editing, dose response (human TTR sequence; [1]) | Liver editing, dose response (human TTR sequence; [2]) | Liver editing, dose response (human TTR sequence; [3]) |
| --- | --- | --- | --- | --- |
| G000494: TTR sgRNA modified sequence, Human, SEQ ID No. 101; guide sequence of CR003360 (nucleic acid) guide: mG*mU*mG*rArGrUrCrUrGrGrArGrArGrCrUrGrCrArUrGrUrUrUrUrArGrAmGmCmUmAmGmAmAmAmUmAmGmCrArArGrUrUrArArArArUrArArGrGrCrUrArGrUrCrCrGrUrUrArUrCrAmAmCmUmUmGmAmAmAmAmAmGmUmGmGmCmAmCmCmGmAmGmUmCmGmGmUmGmCmU*mU*mU*mU | 60.84 |  |  |  |
| G000483: TTR sgRNA modified sequence, Human, SEQ ID No. 90; guide sequence of CR005298 (nucleic acid) guide: mU*mC*mC*rArCrUrCrArUrUrCrUrUrGrGrCrArGrGrArGrUrUrUrUrArGrAmGmCmUmAmGmAmAmAmUmAmGmCrArArGrUrUrArArArArUrArArGrGrCrUrArGrUrCrCrGrUrUrArUrCrAmAmCmUmUmGmAmAmAmAmAmGmUmGmGmCmAmCmCmGmAmGmUmCmGmGmUmGmCmU*mU*mU*mU | 56.52 |  |  |  |
| G000567: TTR sgRNA modified sequence, Human, SEQ ID No. 109; guide sequence of CR003352 (nucleic acid) guide: mG*mA*mA*rArGrGrCrUrGrCrUrGrArUrGrArCrArCrCrGrUrUrUrUrArGrAmGmCmUmAmGmAmAmAmUmAmGmCrArArGrUrUrArArArArUrArArGrGrCrUrArGrUrCrCrGrUrUrArUrCrAmAmCmUmUmGmAmAmAmAmAmGmUmGmGmCmAmCmCmGmAmGmUmCmGmGmUmGmCmU*mU*mU*mU | 97.06 |  |  |  |
| G000499: TTR sgRNA modified sequence, Human, SEQ ID No. 106; guide sequence of CR005303 (nucleic acid) guide: mU*mG*mA*rArUrCrCrArArGrUrGrUrCrCrUrCrUrGrArGrUrUrUrUrArGrAmGmCmUmAmGmAmAmAmUmAmGmCrArArGrUrUrArArArArUrArArGrGrCrUrArGrUrCrCrGrUrUrArUrCrAmAmCmUmUmGmAmAmAmAmAmGmUmGmGmCmAmCmCmGmAmGmUmCmGmGmUmGmCmU*mU*mU*mU | 74.94 | A dose response for both editing and serum TTR levels was evident | A dose response for both editing and serum TTR levels was evident |  |
| G000493: TTR sgRNA modified sequence, Human, SEQ ID No. 100; guide sequence of CR003368 (nucleic acid) guide: mA*mA*mG*rUrGrCrCrUrUrCrCrArGrUrArArGrArUrUrGrUrUrUrUrArGrAmGmCmUmAmGmAmAmAmUmAmGmCrArArGrUrUrArArArArUrArArGrGrCrUrArGrUrCrCrGrUrUrArUrCrAmAmCmUmUmGmAmAmAmAmAmGmUmGmGmCmAmCmCmGmAmGmUmCmGmGmUmGmCmU*mU*mU*mU | 61.15 |  |  |  |
| G000570: TTR sgRNA modified sequence, Human, SEQ ID No. 111; guide sequence of CR003347 (nucleic acid) guide: mC*mA*mU*rUrGrArUrGrGrCrArGrGrArCrUrGrCrCrUrGrUrUrUrUrArGrAmGmCmUmAmGmAmAmAmUmAmGmCrArArGrUrUrArArArArUrArArGrGrCrUrArGrUrCrCrGrUrUrArUrCrAmAmCmUmUmGmAmAmAmAmAmGmUmGmGmCmAmCmCmGmAmGmUmCmGmGmUmGmCmU*mU*mU*mU | 96.73 |  |  |  |
| G000480: TTR sgRNA modified sequence, Human, SEQ ID No. 87; guide sequence of CR003353 (nucleic acid) guide: mA*mA*mA*rGrGrCrUrGrCrUrGrArUrGrArCrArCrCrUrGrUrUrUrUrArGrAmGmCmUmAmGmAmAmAmUmAmGmCrArArGrUrUrArArArArUrArArGrGrCrUrArGrUrCrCrGrUrUrArUrCrAmAmCmUmUmGmAmAmAmAmAmGmUmGmGmCmAmCmCmGmAmGmUmCmGmGmUmGmCmU*mU*mU*mU | 20.32 |  | A dose response for both editing and serum TTR levels was evident | A dose response for both editing and serum TTR levels was evident |
| G000484: TTR sgRNA modified sequence, Human, SEQ ID No. 91; guide sequence of CR003367 (nucleic acid) guide: mA*mG*mA*rCrArCrCrArArArUrCrUrUrArCrUrGrGrArGrUrUrUrUrArGrAmGmCmUmAmGmAmAmAmUmAmGmCrArArGrUrUrArArArArUrArArGrGrCrUrArGrUrCrCrGrUrUrArUrCrAmAmCmUmUmGmAmAmAmAmAmGmUmGmGmCmAmCmCmGmAmGmUmCmGmGmUmGmCmU*mU*mU*mU | 0.22 |  |  |  |
| G000568: TTR sgRNA modified sequence, Human, SEQ ID No. 110; guide sequence of CR003391 (nucleic acid) guide: mG*mG*mC*rUrGrUrCrGrUrCrArCrCrArArUrCrCrCrArGrUrUrUrUrArGrAmGmCmUmAmGmAmAmAmUmAmGmCrArArGrUrUrArArArArUrArArGrGrCrUrArGrUrCrCrGrUrUrArUrCrAmAmCmUmUmGmAmAmAmAmAmGmUmGmGmCmAmCmCmGmAmGmUmCmGmGmUmGmCmU*mU*mU*mU | 87.93 |  |  |  |
| G000500: TTR sgRNA modified sequence, Human, SEQ ID No. 107; guide sequence of CR003337 (nucleic acid) guide: mC*mC*mA*rGrUrCrCrArGrCrArArGrGrCrArGrArGrGrGrUrUrUrUrArGrAmGmCmUmAmGmAmAmAmUmAmGmCrArArGrUrUrArArArArUrArArGrGrCrUrArGrUrCrCrGrUrUrArUrCrAmAmCmUmUmGmAmAmAmAmAmGmUmGmGmCmAmCmCmGmAmGmUmCmGmGmUmGmCmU*mU*mU*mU | 58.04 |  |  |  |
| G000571: TTR sgRNA modified sequence, Human, SEQ ID No. 112; guide sequence of CR005301 (nucleic acid) guide: mG*mU*mC*rArCrArGrArArArCrArCrUrCrArCrCrGrUrGrUrUrUrUrArGrAmGmCmUmAmGmAmAmAmUmAmGmCrArArGrUrUrArArArArUrArArGrGrCrUrArGrUrCrCrGrUrUrArUrCrAmAmCmUmUmGmAmAmAmAmAmGmUmGmGmCmAmCmCmGmAmGmUmCmGmGmUmGmCmU*mU*mU*mU | 97.03 |  |  |  |
| G000486: TTR sgRNA modified sequence, Human, SEQ ID No. 93; guide sequence of CR003339 (nucleic acid) guide: mA*mC*mA*rCrArArArUrArCrCrArGrUrCrCrArGrCrArGrUrUrUrUrArGrAmGmCmUmAmGmAmAmAmUmAmGmCrArArGrUrUrArArArArUrArArGrGrCrUrArGrUrCrCrGrUrUrArUrCrAmAmCmUmUmGmAmAmAmAmAmGmUmGmGmCmAmCmCmGmAmGmUmCmGmGmUmGmCmU*mU*mU*mU |  | A dose response for both editing and serum TTR levels was evident | A dose response for both editing and serum TTR levels was evident |  |
| G000572: TTR sgRNA modified sequence, Human, SEQ ID No. 113; guide sequence of CR003385 (nucleic acid) guide: mC*mC*mC*rCrUrArCrUrCrCrUrArUrUrCrCrArCrCrArGrUrUrUrUrArGrAmGmCmUmAmGmAmAmAmUmAmGmCrArArGrUrUrArArArArUrArArGrGrCrUrArGrUrCrCrGrUrUrArUrCrAmAmCmUmUmGmAmAmAmAmAmGmUmGmGmCmAmCmCmGmAmGmUmCmGmGmUmGmCmU*mU*mU*mU | 100.31 |  |  |  |
| G000488: TTR sgRNA modified sequence, Human, SEQ ID No. 95; guide sequence of CR003346 (nucleic acid) guide: mA*mA*mA*rGrUrUrCrUrArGrArUrGrCrUrGrUrCrCrGrGrUrUrUrUrArGrAmGmCmUmAmGmAmAmAmUmAmGmCrArArGrUrUrArArArArUrArArGrGrCrUrArGrUrCrCrGrUrUrArUrCrAmAmCmUmUmGmAmAmAmAmAmGmUmGmGmCmAmCmCmGmAmGmUmCmGmGmUmGmCmU*mU*mU*mU | 21.63 |  |  | A dose response for both editing and serum TTR levels was evident |
| G000490: TTR sgRNA modified sequence, Human, SEQ ID No. 97; guide sequence of CR003366 (nucleic acid) guide: mA*mA*mA*rUrArGrArCrArCrCrArArArUrCrUrUrArCrGrUrUrUrUrArGrAmGmCmUmAmGmAmAmAmUmAmGmCrArArGrUrUrArArArArUrArArGrGrCrUrArGrUrCrCrGrUrUrArUrCrAmAmCmUmUmGmAmAmAmAmAmGmUmGmGmCmAmCmCmGmAmGmUmCmGmGmUmGmCmU*mU*mU*mU | 90.76 |  |  |  |
